Laboratory results: US20120039802A1 (published 2012)
fluorescein = fluorescein label on the side chain of the C-terminal Lys

Legend:
[1] = target: T1, cMet-Fc fusion protein (extracellular domain of the cMet receptor expressed as an Fc-fusion protein) (human, UniProt P08581 25-932); assay: fluorescence polarization, 20 nM fluorescein peptide, cMet-Fc varied
T1 construct: extracellular domain; also called soluble cMet-Fc-fusion protein; soluble cMet receptor; not shown: Fc part
Experimental: Fluorescence anisotropy measurements were performed in 384-well microplates in a volume of 10 μL in binding buffer (PBS, 0.01% Tween-20, pH 7.5) using a Tecan Polarion fluorescence polarization plate reader ([…]). […] Binding mixtures were equilibrated for 10 minutes in the microplate at 30 C before measurement. The observed change in anisotropy was fit to the equation below via nonlinear regression to obtain the apparent KD. This equation (1) assumes that the synthetic peptide and cMet form a reversible complex in solution with 1:1 stoichiometry.

[2] = target: T1, cMet-Fc fusion protein (extracellular …); assay: phage ELISA, cMet-Fc vs TRAIL-Fc
How it was run: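 Plates coated overnight at 4 C with 0.5 μg/mL cMet-Fc, or TRAIL-Fc as background, were blocked with 3% BSA in PBST. Peptide-displaying phage were bound 2 h at room temperature. Bound phage were detected with HRP-conjugated anti-M13 antibody.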

[3] = target: T2, human cMet expressed on 3T3 cells (human, UniProt P08581 25-1390); assay: whole cell phage ELISA, 3T3 human cMet vs 3T3
T2 construct: whole, on cells; cells fixed with glutaraldehyde; also called cell surface-expressed human cMet; 3T3 cells that over-express human cMet
How it was run: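 3T3 cells over-expressing human cMet, compared against parental 3T3, seeded at 10⁵ per well and fixed with 0.1% glutaraldehyde for 12 min at 37 C. Blocked peptide-displaying phage bound for 1 h at room temperature. After PBST washes, bound phage was detected with HRP-conjugated anti-M13 antibody.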

[4] = target: T1, cMet-Fc fusion protein (extracellular …); assay: phage ELISA on cMet-Fc, competitor HGF 100 ng/mL
How it was run: (§1)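 Plates coated with 0.5 μg/mL cMet-Fc, with TRAIL-Fc as background, then blocked with 3% BSA. Bound phage detected with HRP anti-M13 antibody.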

[5] = target: T1, cMet-Fc fusion protein (extracellular …); assay: phage ELISA on cMet-Fc, competitor HGF 500 ng/mL
How it was run: as §1

T2 sequence (P08581 25-1390): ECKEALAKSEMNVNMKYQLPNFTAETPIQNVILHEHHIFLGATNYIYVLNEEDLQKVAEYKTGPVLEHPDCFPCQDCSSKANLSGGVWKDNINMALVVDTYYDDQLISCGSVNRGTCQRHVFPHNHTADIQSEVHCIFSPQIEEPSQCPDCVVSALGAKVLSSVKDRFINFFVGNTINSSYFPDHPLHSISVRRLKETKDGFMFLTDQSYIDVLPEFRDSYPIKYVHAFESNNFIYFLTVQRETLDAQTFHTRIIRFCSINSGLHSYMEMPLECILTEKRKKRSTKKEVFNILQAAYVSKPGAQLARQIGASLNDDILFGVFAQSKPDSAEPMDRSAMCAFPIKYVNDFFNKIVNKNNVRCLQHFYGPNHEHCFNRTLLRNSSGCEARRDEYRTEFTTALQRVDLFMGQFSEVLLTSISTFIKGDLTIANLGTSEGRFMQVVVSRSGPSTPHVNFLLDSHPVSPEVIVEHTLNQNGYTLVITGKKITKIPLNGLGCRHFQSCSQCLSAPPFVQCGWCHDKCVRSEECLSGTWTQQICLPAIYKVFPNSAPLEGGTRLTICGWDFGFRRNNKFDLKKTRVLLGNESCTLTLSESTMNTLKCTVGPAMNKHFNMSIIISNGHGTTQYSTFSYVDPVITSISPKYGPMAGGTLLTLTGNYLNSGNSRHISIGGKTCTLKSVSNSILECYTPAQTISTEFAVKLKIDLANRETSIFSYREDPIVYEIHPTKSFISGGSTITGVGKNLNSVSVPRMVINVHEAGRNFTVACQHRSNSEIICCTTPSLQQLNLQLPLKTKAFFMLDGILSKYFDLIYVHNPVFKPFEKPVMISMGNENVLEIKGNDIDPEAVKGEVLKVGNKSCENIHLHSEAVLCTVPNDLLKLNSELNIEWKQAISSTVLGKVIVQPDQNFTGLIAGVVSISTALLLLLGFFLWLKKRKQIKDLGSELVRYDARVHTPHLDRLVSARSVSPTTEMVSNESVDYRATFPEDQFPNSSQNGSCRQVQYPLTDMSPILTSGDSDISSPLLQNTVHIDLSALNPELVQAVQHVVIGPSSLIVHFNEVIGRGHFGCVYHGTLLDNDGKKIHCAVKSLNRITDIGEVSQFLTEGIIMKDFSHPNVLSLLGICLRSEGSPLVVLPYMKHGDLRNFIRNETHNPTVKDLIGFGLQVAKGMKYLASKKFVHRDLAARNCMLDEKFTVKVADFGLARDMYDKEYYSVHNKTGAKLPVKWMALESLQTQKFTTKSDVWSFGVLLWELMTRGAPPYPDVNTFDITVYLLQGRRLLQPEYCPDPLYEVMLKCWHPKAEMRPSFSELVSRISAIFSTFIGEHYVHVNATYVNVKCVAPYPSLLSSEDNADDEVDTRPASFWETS
T1 sequence (P08581 25-932): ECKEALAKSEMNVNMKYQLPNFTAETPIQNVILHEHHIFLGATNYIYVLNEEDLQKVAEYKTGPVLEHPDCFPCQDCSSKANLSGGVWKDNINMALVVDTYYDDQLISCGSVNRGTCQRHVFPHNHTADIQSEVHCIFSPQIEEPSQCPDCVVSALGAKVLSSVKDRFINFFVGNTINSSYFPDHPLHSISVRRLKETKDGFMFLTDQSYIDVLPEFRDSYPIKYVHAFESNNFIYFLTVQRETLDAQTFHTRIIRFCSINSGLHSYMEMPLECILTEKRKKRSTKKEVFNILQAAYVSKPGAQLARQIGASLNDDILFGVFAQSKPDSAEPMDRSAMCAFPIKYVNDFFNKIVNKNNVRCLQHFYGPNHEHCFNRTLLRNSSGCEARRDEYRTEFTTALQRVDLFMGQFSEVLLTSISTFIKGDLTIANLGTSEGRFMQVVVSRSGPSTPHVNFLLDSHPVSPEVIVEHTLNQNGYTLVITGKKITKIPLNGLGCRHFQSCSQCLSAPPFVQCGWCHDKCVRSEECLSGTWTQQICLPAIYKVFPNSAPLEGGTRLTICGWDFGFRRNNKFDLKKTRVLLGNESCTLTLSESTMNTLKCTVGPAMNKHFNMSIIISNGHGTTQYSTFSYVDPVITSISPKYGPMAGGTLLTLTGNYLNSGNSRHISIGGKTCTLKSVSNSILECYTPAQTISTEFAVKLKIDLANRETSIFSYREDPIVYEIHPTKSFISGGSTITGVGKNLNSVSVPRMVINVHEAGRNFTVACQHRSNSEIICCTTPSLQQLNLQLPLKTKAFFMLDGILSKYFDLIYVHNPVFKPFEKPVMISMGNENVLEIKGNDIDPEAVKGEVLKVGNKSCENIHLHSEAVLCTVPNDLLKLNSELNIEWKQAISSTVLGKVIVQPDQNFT

Row | Binder | Kd [1] | Protein ELISA (fold over background) [2] | WC ELISA (fold over background) [3] | % of binding in the absence of HGF [4] | % of binding in the absence of HGF [5]
1 | Ac-AQIQGIQKTEQGEFYWFNWFPAGGGK(fluorescein)-NH2 [528-F05 synthetic fluorescein-labeled peptide (SEQ ID NO: 450)] | 2700 nM |  |  |  | 
2 | Ac-GDYDYCDFDLETYIPECHSYDPGGGK(fluorescein)-NH2 (cysteine pairing not given here) [546-G02 synthetic fluorescein-labeled peptide (SEQ ID NO: 390)] | 1500 nM |  |  |  | 
3 | AGVIVCNLSMMYCLYPGT [499-C09 peptide-displaying phage (SEQ ID NO: 023)] |  | 3.2 fold | 1.33 fold | 91% | 70%
4 | Ac-AGWTHCIGPPTFECIPMGTGGGK(fluorescein)-NH2 (cysteine pairing not given here) [334-G06 synthetic fluorescein-labeled peptide (SEQ ID NO: 052)] | 2700 nM |  |  |  | 
5 | AQRDYLFYWNDGSYQPWQVFVG [523-A04 peptide-displaying phage (SEQ ID NO: 493)] |  | 5.5 fold | 1.3 fold | 133% | 143%
6 | Ac-AGHWICVGPPTFSCQWHGTGGGK(fluorescein)-NH2 (cysteine pairing not given here) [330-G09 synthetic fluorescein-labeled peptide (SEQ ID NO: 071)] | 1850 nM |  |  |  | 
7 | Ac-AGSFACKGPPTFACVEFGTGGGK(fluorescein)-NH2 (cysteine pairing not given here) [330-B07 synthetic fluorescein-labeled peptide (SEQ ID NO: 053)] | 2900 nM |  |  |  | 
8 | AQVEDMATVHFKFNPATHEVIW [524-H02 peptide-displaying phage (SEQ ID NO: 492)] |  | 3.2 fold | 1.53 fold | 26% | 25%
9 | Ac-AGNWICTGPPSFGCWYHGTGGGK(fluorescein)-NH2 (cysteine pairing not given here) [331-G06 synthetic fluorescein-labeled peptide (SEQ ID NO: 078)] | 2900 nM |  |  |  | 
10 | Ac-AQREVEEPYWYLDFLSSWRMHEGGGK(fluorescein)-NH2 [524-E09 synthetic fluorescein-labeled peptide (SEQ ID NO: 451)] | 2000 nM |  |  |  | 
11 | Ac-AGHAWCSGPPRFECWPPGTGGGK(fluorescein)-NH2 (cysteine pairing not given here) [329-D02 synthetic fluorescein-labeled peptide (SEQ ID NO: 061)] | 5200 nM |  |  |  | 
12 | Ac-AGSIQCVGPPSFECTPYGTGGGK(fluorescein)-NH2 (cysteine pairing not given here) [335-D11 synthetic fluorescein-labeled peptide (SEQ ID NO: 074)] | 3300 nM |  |  |  | 
13 | AGYPECKDNYHWCEWKGT [457-A09 peptide-displaying phage (SEQ ID NO: 024)] |  | 14.5 fold | 1.3 fold | 27% | 67%
14 | AQQWMFQIHQSMAWPYEWIDSY [524-D07 peptide-displaying phage (SEQ ID NO: 494)] |  | 3.9 fold | 1.23 fold | 105% | 104%
15 | AGVWICRVWDDECFFQGT [376-E05 peptide-displaying phage (SEQ ID NO: 020)] |  | 3.7 fold | 1.37 fold | 122% | 121%
16 | AQGGRYPFYDTDWFKWEMYVL [527-A10 peptide-displaying phage (SEQ ID NO: 496)] |  | 3.8 fold | 1.3 fold | 84% | 78%
17 | Ac-AGDIVCTGHPYFECWSWGTGGGK(fluorescein)-NH2 (cysteine pairing not given here) [333-C05 synthetic fluorescein-labeled peptide (SEQ ID NO: 068)] | 2800 nM |  |  |  | 

Row | Binder | Kd [1] | Protein ELISA (fold over background) [2] | WC ELISA (fold over background) [3] | % of binding in the absence of HGF [4] | % of binding in the absence of HGF [5]
18 | Ac-AQQASRFTFTDGDSYWWFEDFGGGK(fluorescein)-NH2 [525-A07 synthetic fluorescein-labeled peptide (SEQ ID NO: 449)] | 6900 nM |  |  |  | 
19 | Ac-AQRPEAHYKLAMSYPIIPRTKTGGGK(fluorescein)-NH2 [96-H12 synthetic fluorescein-labeled peptide (SEQ ID NO: 452)] | > 2000 nM |  |  |  | 
20 | AGVLQCIGFEWFCDIWGT [423-C11 peptide-displaying phage (SEQ ID NO: 022)] |  | 3.4 fold | 1.4 fold | 132% | 75%
21 | AQGIAWQLEWSYMPQSPPSFDR [522-H03 peptide-displaying phage (SEQ ID NO: 495)] |  | 4.5 fold | 1.17 fold | 107% | 94%
22 | AGTVYCSWESSECWWVGT [352-E04 peptide-displaying phage (SEQ ID NO: 019)] |  | 3.9 fold | 1.37 fold | 88% | 74%
23 | Ac-AGYTSCVGPPSFECTPYGTGGGK(fluorescein)-NH2 (cysteine pairing not given here) [323-A11 synthetic fluorescein-labeled peptide (SEQ ID NO: 059)] | 4300 nM |  |  |  | 
24 | Ac-AQRWSSPGMSQSFVLEWKWNDNGGGK(fluorescein)-NH2 [118-A08 synthetic fluorescein-labeled peptide (SEQ ID NO: 453)] | > 2000 nM |  |  |  | 
25 | AGDHYCWEEWWFCWDSGT [482-A12 peptide-displaying phage (SEQ ID NO: 021)] |  | 3.5 fold | 1.37 fold | 98% | 79%
26 | Ac-GDDFHCEFIDDYQSEICYFNDPGGGK(fluorescein)-NH2 (cysteine pairing not given here) [333-C03 synthetic fluorescein-labeled peptide (SEQ ID NO: 391)] | 1800 nM |  |  |  | 
27 | Ac-AGSIQCKGPPWFSCAMYGTGGGK(fluorescein)-NH2 (cysteine pairing not given here) [325-H05 synthetic fluorescein-labeled peptide (SEQ ID NO: 048)] | 3500 nM |  |  |  | 
28 | Ac-AQYDTWVFQFIHEVPGELVAMQGGGK(fluorescein)-NH2 [94-E08 synthetic fluorescein-labeled peptide (SEQ ID NO: 454)] | 930 nM |  |  |  | 
29 | Ac-AGEWWCHGPPEFLCYWTGTGGGK(fluorescein)-NH2 (cysteine pairing not given here) [331-F01 synthetic fluorescein-labeled peptide (SEQ ID NO: 072)] | 980 nM |  |  |  | 
30 | Ac-AQVGSPMLPSWFSFEANWSSGGGK(fluorescein)-NH2 [95-A11 synthetic fluorescein-labeled peptide (SEQ ID NO: 456)] | 2300 nM |  |  |  | 
31 | Ac-AGWISCAGPPTFACWPGGTGGGK(fluorescein)-NH2 (cysteine pairing not given here) [548-F06 synthetic fluorescein-labeled peptide (SEQ ID NO: 056)] | 2700 nM |  |  |  | 
32 | Ac-AGWFQCKGPPSFECERHGTGGGK(fluorescein)-NH2 (cysteine pairing not given here) [336-G04 synthetic fluorescein-labeled peptide (SEQ ID NO: 051)] | 3200 nM |  |  |  | 
33 | Ac-AGGWECTGPPWFQCGYYGTGGGK(fluorescein)-NH2 (cysteine pairing not given here) [334-C08 synthetic fluorescein-labeled peptide (SEQ ID NO: 067)] | 1650 nM |  |  |  | 
